Data set [1] deals with hGH-AP fusion protein with substrate linker Asn-Leu-Met-Arg-Lys (E. coli). The conditions noted are these: scale: times faster than the Thr-Ala-Ser-Arg-Arg and Asn-Leu-Thr-Ala-Arg fusions.
Data set [2] has as its target T1, succinyl-Ala-Ala-Lys-Lys-pNa.
T1 sequence (peptide, N-terminal succinyl; C-terminal p-nitroanilide (pNA)): AAKK

For the next data set, the target named is T2, succinyl-AAPF-pNA.
T2 sequence (peptide, N-terminal succinyl; C-terminal p-nitroanilide (pNA)): AAPF

The target in a further data set is T3, succinyl-AAKR-pNA.
T3 sequence (peptide, N-terminal succinyl; C-terminal p-nitroanilide (pNA)): AAKR

Substrate in data set [3]: C[C@H](NC(=O)CCC(=O)O)C(=O)N[C@@H](C)C(=O)N1CCC[C@H]1C(=O)N[C@@H](Cc1ccccc1)C(=O)Nc1ccc([N+](=O)[O-])cc1
Briefly: Kinetic analysis, hydrolysis of succinyl-tetrapeptide-pNA substrates. The data set is classed as biochemical, Bacillus amyloliquefaciens. The following applies: other: N62D/G166D, 20 mM Tris-Cl pH 8.2, 4% DMSO, 25 C. The procedure: (§1) The mature N62D/Y104D/G166D variant was purified and analyzed for its ability to hydrolyze several tetrapeptide-pNA substrates.
(§2) Kinetic analysis of WT, N62D/G166D, and N62D/Y104D/G166D subtilisin BPN'
(§3) Subtilisins were assayed by measuring the initial rates of hydrolysis of p-nitroanilide tetrapeptide substrates in 0.4 mL 20 mM Tris-Cl pH 8.2, 4% (v/v) dimethyl sulfoxide at (25±0.2)° C. as described previously (Estell, D. A., Graycar, T. P., Miller, J. V., Powers, D. B., Burnier, J. P., Ng, P. G. and Wells, J. A. (1986)Science 233:659-663). Enzyme concentrations (E)0 were determined spectrophotometrically using E280 nm 0.1%=1.17 (Matsubara, H.; Kasper, C B.; Brown, D. M.; and Smith, E. L. (1965)J. Biol. Chem.,240:1125-1130.), and were typically 5-50 nM in reactions. Initial rates were determined for nine to twelve different substrate concentrations over the range of 0.001-2.0 mM. Plots of initial rates (v) versus substrate concentration (S) were fitted to the Michaelis-Menton equation, [formula] to determine the kinetic constants kcat and Km (Fersht, A. in "Enzyme Structure and Mechanism", Second edition, Freeman and Co., N.Y.) using the program Kaleidagraph (Synergy Software, Reading, Pa.).

Substrate in data set [4]: C[C@H](NC(=O)CCC(=O)O)C(=O)N[C@@H](C)C(=O)N[C@@H](CCCCN)C(=O)N[C@@H](CCCNC(=N)N)C(=O)Nc1ccc([N+](=O)[O-])cc1
Described as above. The data set is classed as biochemical, Bacillus amyloliquefaciens. The following applies: 20 mM Tris-Cl pH 8.2, 4% DMSO, 25 C. The procedure: as §1, §2, §3

Data set [5] concerns the target T4, succinyl-Ala-Ala-Pro-Lys-pNa.
T4 sequence (peptide, N-terminal succinyl; C-terminal p-nitroanilide (pNA)): AAPK

In the next data set the target is T5, succinyl-RAKR-pNA.
T5 sequence (peptide, N-terminal succinyl; C-terminal p-nitroanilide (pNA)): RAKR

In a further data set the target is T6, succinyl-KAKR-pNA.
T6 sequence (peptide, N-terminal succinyl; C-terminal p-nitroanilide (pNA)): KAKR

Substrate in data set [6]: C[C@H](NC(=O)[C@H](CCCCN)NC(=O)CCC(=O)O)C(=O)N[C@@H](CCCCN)C(=O)N[C@@H](CCCNC(=N)N)C(=O)Nc1ccc([N+](=O)[O-])cc1
Kind of data set: Kinetic analysis, hydrolysis of succinyl-tetrapeptide-pNA substrates. Type of data set: biochemical, Bacillus amyloliquefaciens. The conditions noted are these: other: N62D/Y104D/G166D, 20 mM Tris-Cl pH 8.2, 4% DMSO, 25 C. The procedure: as §1, §2, §3

Substrate in data set [7]: C[C@H](NC(=O)[C@H](CCCNC(=N)N)NC(=O)CCC(=O)O)C(=O)N[C@@H](CCCCN)C(=O)N[C@@H](CCCNC(=N)N)C(=O)Nc1ccc([N+](=O)[O-])cc1
The data set is described as above. Type of data set: biochemical, Bacillus amyloliquefaciens. The conditions noted are these: other: N62D/Y104D/G166D, 20 mM Tris-Cl pH 8.2, 4% DMSO, 25 C. The procedure: as §1, §2, §3

B1: subtilisin BPN' variant N62D/G166D (mature enzyme SEQ ID NO: 72) (Bacillus amyloliquefaciens; G273D/N169D) (protein)
chain: AQSVPYGVSQIKAPALHSQGYTGSNVKVAVIDSGIDSSHPDLKVAGGASMVPSETNPFQDNDSHGTHVAGTVAALNNSIGVLGVAPSASLYAVKVLGADGSGQYSWIINGIEWAIANNMDVINMSLGGPSGSAALKAAVDKAVASGVVVVAAAGNEGTSGSSSTVDYPGKYPSVIAVGAVDSSNQRASFSSVGPELDVMAPGVSIQSTLPGNKYGAYNGTSMASPHVAGAAALILSKHPNWTNTQVRSSLENTTTKLGDSFYYGKGLINVQAAAQ
notes: made in house; host or cells: Bacillus subtilis BG2036 (protease-deficient), secreted
B1: the rate of cleavage of the fusion protein from the hGH receptor plate (released AP activity) in data set [1] was 10. Also, in data set [2], the ratio of catalytic efficiencies, hydrolysis of succinyl-tetrapeptide-pNA (times faster than a Lys-Phe substrate) was 18. In addition, the kcat/Km, hydrolysis of succinyl-tetrapeptide-pNA came to 1900 M⁻¹ s⁻¹ in the data set with succinyl-AAPF-pNA and 370000 M⁻¹ s⁻¹ with succinyl-AAKR-pNA. For the same molecule, the Km is 1800 µM in data set [3] and 41 µM in data set [4] (other: N62D/G166D). The kcat in [3] amounted to 3.4 s⁻¹; in data set [4] (other: N62D/G166D), 15 s⁻¹. Moreover, the kcat/Km in data set [3] amounted to 1900 M⁻¹ s⁻¹; in data set [4] (other: N62D/G166D) it was 370000 M⁻¹ s⁻¹.

B2: subtilisin BPN' variant N62D/G166E (enzyme)
chain: AQSVPYGVSQIKAPALHSQGYTGSNVKVAVIDSGIDSSHPDLKVAGGASMVPSETNPFQDNDSHGTHVAGTVAALNNSIGVLGVAPSASLYAVKVLGADGSGQYSWIINGIEWAIANNMDVINMSLGGPSGSAALKAAVDKAVASGVVVVAAAGNEGTSGSSSTVEYPGKYPSVIAVGAVDSSNQRASFSSVGPELDVMAPGVSIQSTLPGNKYGAYNGTSMASPHVAGAAALILSKHPNWTNTQVRSSLENTTTKLGDSFYYGKGLINVQAAAQ
For B2, in data set [2], the ratio of catalytic efficiencies, hydrolysis of succinyl-tetrapeptide-pNA (times faster than the Lys-Phe substrate) stood at 8.

B3: subtilisin BPN' variant G166D (enzyme)
chain: AQSVPYGVSQIKAPALHSQGYTGSNVKVAVIDSGIDSSHPDLKVAGGASMVPSETNPFQDNNSHGTHVAGTVAALNNSIGVLGVAPSASLYAVKVLGADGSGQYSWIINGIEWAIANNMDVINMSLGGPSGSAALKAAVDKAVASGVVVVAAAGNEGTSGSSSTVDYPGKYPSVIAVGAVDSSNQRASFSSVGPELDVMAPGVSIQSTLPGNKYGAYNGTSMASPHVAGAAALILSKHPNWTNTQVRSSLENTTTKLGDSFYYGKGLINVQAAAQ
With B3, the ratio of catalytic efficiencies, hydrolysis of succinyl-tetrapeptide-pNA (times faster than the Phe P1 substrate) in data set [5] was determined as 3.

B4: subtilisin BPN' variant N62D/Y104D/G166D (SEQ ID NO: 75) (Bacillus amyloliquefaciens; G273D/N169D/Y211D) (protein)
chain: AQSVPYGVSQIKAPALHSQGYTGSNVKVAVIDSGIDSSHPDLKVAGGASMVPSETNPFQDNDSHGTHVAGTVAALNNSIGVLGVAPSASLYAVKVLGADGSGQDSWIINGIEWAIANNMDVINMSLGGPSGSAALKAAVDKAVASGVVVVAAAGNEGTSGSSSTVDYPGKYPSVIAVGAVDSSNQRASFSSVGPELDVMAPGVSIQSTLPGNKYGAYNGTSMASPHVAGAAALILSKHPNWTNTQVRSSLENTTTKLGDSFYYGKGLINVQAAAQ
notes: the mature enzyme +1 to +275; made in house; host or cells: Bacillus subtilis BG2036 (protease-deficient), secreted
For B4, the kcat/Km, hydrolysis of succinyl-tetrapeptide-pNA with succinyl-AAPF-pNA amounted to 8 M⁻¹ s⁻¹; with succinyl-RAKR-pNA, 490000 M⁻¹ s⁻¹; with succinyl-AAKR-pNA, 8100 M⁻¹ s⁻¹; with succinyl-KAKR-pNA it was 340000 M⁻¹ s⁻¹. The Km in data set [6] came out at 29 µM; in [7], 23 µM; in [4] (other: N62D/Y104D/G166D), 34 µM. Moreover, the kcat in data set [6] turned out to be 9.8 s⁻¹; in data set [7], 11 s⁻¹; in data set [4] (other: N62D/Y104D/G166D), 0.27 s⁻¹. The results for the kcat/Km in data set [6], in data set [7] and in [4] (other: N62D/Y104D/G166D) were 340000 M⁻¹ s⁻¹, 490000 M⁻¹ s⁻¹ and 8100 M⁻¹ s⁻¹, respectively.

Source of the values: patent US5837516A, “Subtilisin variants capable of cleaving substrates containing basic residues” (Genentech, Inc., priority 1995, dated 1998).
